Source: patent publication US20240010733A1

Target: soluble CLEC2D antigen, ecto-domain (Q72-V191, H176C) with C-term Histidine tag (human) (UniProt Q9UHP7)
Assay: flow cytometry on CLEC2D-coated magnetic beads

Chain of UniProt Q9UHP7 (Q9UHP7 72-191 H176C limits assumed): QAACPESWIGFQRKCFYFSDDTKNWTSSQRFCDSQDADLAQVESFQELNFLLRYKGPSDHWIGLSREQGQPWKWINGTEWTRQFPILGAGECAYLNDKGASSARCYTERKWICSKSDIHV

efficiency of conjugation (antigen-coated beads stained by the antibody): > 90%
Substance: commercial P4500/anti-CLEC2D antibody
